Read-outs that look alike come from different tables or passages of the source. Blank lines part the entries; values can stand above or below the substance they belong to.
Legend:
GST-WW-domain of Pin1 = GST-WW-domain of Pin1 (UniProt Q13526)
[1] = target: Pintide analogue WFYpSPFLE; test: fluorescence anisotropy; low affinity site
[2] = target: Pintide analogue WFYpSPFLE; test: fluorescence anisotropy; high affinity site
[3] = target: Pintide analogue WFYpSPFLE; test: fluorescence anisotropy, GST-WW-domain titrated on fluorescein-labeled peptide
[4] = target: Cdc25 Peptide EQPLpTPVTDL; test: as above
[5] = target: proteins of labeled HeLa cell lysates pretreated with Ser phosphatases (CIP, PP1 and PP2A); test: pulldown from labeled HeLa lysates pretreated with Ser phosphatases
[6] = target: pT231 tau peptide (SEQ ID NO: 20); test: ELISA on peptide
[7] = target: Amyloid Precursor Protein Peptide … (pT-668); test: ELISA on peptide
[8] = target: pT231 tau peptide (SEQ ID NO: 20); test: ELISA on peptide; remark: listed apart in the source
[9] = target: Pintide analogue WFYpSPFLE; test: fluorescence anisotropy, fluorescein labeled Pintide; high affinity site
[10] = target: Pintide analogue WFYpSPFLE; test: fluorescence anisotropy (Table 2 prints 1.0 for the WW-domain)
[11] = target: tau peptide … (pT-231), SEQ ID NO: 29; test: ELISA on peptide

Chain of Nedd4 WW-domain-1 (P46935 249-282): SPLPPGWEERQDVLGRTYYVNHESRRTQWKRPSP

Substance: Cdc25C, in vitro translated (35S-Met), phosphorylated by Xenopus mitotic extracts
dephosphorylation of the bound Cdc25C by calf intestine phosphatase (CIP) (GST-WW-domain of Pin1): When mitotically phosphorylated Cdc25C was precipitated using GST beads containing Pin1 or its WW-domain, CIP failed to dephosphorylate Cdc25C.

Kd [1]: 13 µM
Kd [2]: 1.2 µM
Substance: GST-Pin1 (from UniProt Q13526 1-163) (enzyme)

Kd [1]: 13.5 µM
Kd [2]: 2 µM
Substance: GST-Pin1^R14A (from UniProt Q13526 1-163) (enzyme)

Kd [1]: 10.5 µM
Kd [2]: 1.2 µM
Substance: GST-Pin1^S16A (from UniProt Q13526 1-163) (enzyme)

Kd [1]: 10.5 µM
Substance: GST-Pin1^S16E (from UniProt Q13526 1-163) (enzyme)

Kd [1]: 12 µM
Kd [2]: 1 µM
Substance: GST-Pin1^S18E (from UniProt Q13526 1-163) (enzyme)

Kd [1]: 14 µM
Substance: GST-Pin1^W34A (from UniProt Q13526 1-163) (enzyme)

Kd [1]: 13.5 µM
Substance: GST-Pin1^Y23A (from UniProt P08515 1-218; Q13526 1-163) (enzyme)

Kd [3]: 1 µM
Kd [4]: 2.2 µM
Substance: GST-WW-domain of Pin1 (from UniProt Q13526 1-54)

fold reduction of binding against untreated lysates [5]: 10 fold
Substance: Nedd4 WW-domain-1 (from UniProt P46935 249-282)

Kd [3]: 10 µM
Kd [4]: 20 µM
fold reduction of binding against untreated lysates [5]: 10 fold
Substance: Nedd4 WW-domain-2 (from UniProt P46935 405-438)

Binding (OD@405 nm) [6]: 1.46 OD@405 nm
Kd [6]: 0.04 µM
Binding (OD@405 nm) [7]: 1.81 OD@405 nm
Kd [1]: 11 µM
Kd [2]: 1.2 µM
Kd [8]: 0.025 µM
Kd [9]: 1.2 µM
Substance: Pin1 (from UniProt Q13526 1-163) (enzyme)

Kd [1]: 15 µM
Substance: Pin1 PPIase domain (amino acids 47-163) (from UniProt Q13526 47-163) (enzyme)

Kd [2]: 1 µM
Kd [10]: 1.2 µM
Substance: Pin1 WW-domain (amino acids 1-54) (from UniProt Q13526 1-54)

Binding (OD@405 nm) [11]: 1.3 OD@405 nm
Kd [9]: 2 µM
Substance: Pin1^R14A (from UniProt Q13526 1-163) (enzyme)

Kd [9]: 1.2 µM
Substance: Pin1^S16A (from UniProt Q13526 1-163) (enzyme)

Kd [9]: 5 µM
Substance: Pin1^Y23F (from UniProt Q13526 1-163) (enzyme)
